T1: GST-PUB11-ARM (Arabidopsis thaliana)
T1 chain: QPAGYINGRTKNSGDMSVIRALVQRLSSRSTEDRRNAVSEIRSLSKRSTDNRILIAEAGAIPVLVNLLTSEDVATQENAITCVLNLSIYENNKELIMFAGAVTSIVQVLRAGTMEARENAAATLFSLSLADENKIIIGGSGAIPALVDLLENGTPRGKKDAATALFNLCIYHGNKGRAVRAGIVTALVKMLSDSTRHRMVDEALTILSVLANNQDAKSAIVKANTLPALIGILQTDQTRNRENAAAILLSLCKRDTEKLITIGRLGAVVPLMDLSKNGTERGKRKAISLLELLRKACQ


What was measured:
GST-PUB11-ARM = target: T1, GST-PUB11-ARM; experiment: MST
GST = experiment: MST

Kd (GST-PUB11-ARM) [µM]	Kd (GST) [µM]	Binder
1.3	–	AtHPPD-F428Y (protein, GST carrier omitted. Limits not printed: ARM region taken as everything after the U-box (240-314) to the C-terminus) MGHQNAAVSENQNHDDGAASSPGFKLVGFSKFVRKNPKSDKFKVKRFHHIEFWCGDATNVARRFSWGLGMRFSAKSDLSTGNMVHASYLLTSGDLRFLFTAPYSPSLSAGEIKPTTTASIPSFDHGSCRSFFSSHGLGVRAVAIEVEDAESAFSISVANGAIPSSPPIVLNEAVTIAEVKLYGDVVLRYVSYKAEDTEKSEFLPGFERVEDASSFPLDYGIRRLDHAVGNVPELGPALTYVAGFTGFHQFAEFTADDVGTAESGLNSAVLASNDEMVLLPINEPVHGTKRKSQIQTYLEHNEGAGLQHLALMSEDIFRTLREMRKRSSIGGFDFMPSPPPTYYQNLKKRVGDVLSDDQIKECEELGILVDRDDQGTLLQIFTKPLGDRPTIFIEIIQRVGCMMKDEEGKAYQSGGCGGFGKGNFSELYKSIEEYEKTLEAKQLVG
0.23	–	AtHPPD-F47Y (protein, GST carrier omitted. Limits not printed: ARM region taken as everything after the U-box (240-314) to the C-terminus) MGHQNAAVSENQNHDDGAASSPGFKLVGFSKFVRKNPKSDKFKVKRYHHIEFWCGDATNVARRFSWGLGMRFSAKSDLSTGNMVHASYLLTSGDLRFLFTAPYSPSLSAGEIKPTTTASIPSFDHGSCRSFFSSHGLGVRAVAIEVEDAESAFSISVANGAIPSSPPIVLNEAVTIAEVKLYGDVVLRYVSYKAEDTEKSEFLPGFERVEDASSFPLDYGIRRLDHAVGNVPELGPALTYVAGFTGFHQFAEFTADDVGTAESGLNSAVLASNDEMVLLPINEPVHGTKRKSQIQTYLEHNEGAGLQHLALMSEDIFRTLREMRKRSSIGGFDFMPSPPPTYYQNLKKRVGDVLSDDQIKECEELGILVDRDDQGTLLQIFTKPLGDRPTIFIEIIQRVGCMMKDEEGKAYQSGGCGGFGKGNFSELFKSIEEYEKTLEAKQLVG
1.6	–	AtHPPD-F52Y (antibody, GST carrier omitted. Limits not printed: ARM region taken as everything after the U-box (240-314) to the C-terminus) MGHQNAAVSENQNHDDGAASSPGFKLVGFSKFVRKNPKSDKFKVKRFHHIEYWCGDATNVARRFSWGLGMRFSAKSDLSTGNMVHASYLLTSGDLRFLFTAPYSPSLSAGEIKPTTTASIPSFDHGSCRSFFSSHGLGVRAVAIEVEDAESAFSISVANGAIPSSPPIVLNEAVTIAEVKLYGDVVLRYVSYKAEDTEKSEFLPGFERVEDASSFPLDYGIRRLDHAVGNVPELGPALTYVAGFTGFHQFAEFTADDVGTAESGLNSAVLASNDEMVLLPINEPVHGTKRKSQIQTYLEHNEGAGLQHLALMSEDIFRTLREMRKRSSIGGFDFMPSPPPTYYQNLKKRVGDVLSDDQIKECEELGILVDRDDQGTLLQIFTKPLGDRPTIFIEIIQRVGCMMKDEEGKAYQSGGCGGFGKGNFSELFKSIEEYEKTLEAKQLVG
1.75	–	AtHPPD-F424Y (protein, GST carrier omitted. Limits not printed: ARM region taken as everything after the U-box (240-314) to the C-terminus) MGHQNAAVSENQNHDDGAASSPGFKLVGFSKFVRKNPKSDKFKVKRFHHIEFWCGDATNVARRFSWGLGMRFSAKSDLSTGNMVHASYLLTSGDLRFLFTAPYSPSLSAGEIKPTTTASIPSFDHGSCRSFFSSHGLGVRAVAIEVEDAESAFSISVANGAIPSSPPIVLNEAVTIAEVKLYGDVVLRYVSYKAEDTEKSEFLPGFERVEDASSFPLDYGIRRLDHAVGNVPELGPALTYVAGFTGFHQFAEFTADDVGTAESGLNSAVLASNDEMVLLPINEPVHGTKRKSQIQTYLEHNEGAGLQHLALMSEDIFRTLREMRKRSSIGGFDFMPSPPPTYYQNLKKRVGDVLSDDQIKECEELGILVDRDDQGTLLQIFTKPLGDRPTIFIEIIQRVGCMMKDEEGKAYQSGGCGGFGKGNYSELFKSIEEYEKTLEAKQLVG
0.37	–	AtHPPD-F64Y (protein, GST carrier omitted. Limits not printed: ARM region taken as everything after the U-box (240-314) to the C-terminus) MGHQNAAVSENQNHDDGAASSPGFKLVGFSKFVRKNPKSDKFKVKRFHHIEFWCGDATNVARRYSWGLGMRFSAKSDLSTGNMVHASYLLTSGDLRFLFTAPYSPSLSAGEIKPTTTASIPSFDHGSCRSFFSSHGLGVRAVAIEVEDAESAFSISVANGAIPSSPPIVLNEAVTIAEVKLYGDVVLRYVSYKAEDTEKSEFLPGFERVEDASSFPLDYGIRRLDHAVGNVPELGPALTYVAGFTGFHQFAEFTADDVGTAESGLNSAVLASNDEMVLLPINEPVHGTKRKSQIQTYLEHNEGAGLQHLALMSEDIFRTLREMRKRSSIGGFDFMPSPPPTYYQNLKKRVGDVLSDDQIKECEELGILVDRDDQGTLLQIFTKPLGDRPTIFIEIIQRVGCMMKDEEGKAYQSGGCGGFGKGNFSELFKSIEEYEKTLEAKQLVG
2.38	–	AtHPPD-F132Y (protein, GST carrier omitted. Limits not printed: ARM region taken as everything after the U-box (240-314) to the C-terminus) MGHQNAAVSENQNHDDGAASSPGFKLVGFSKFVRKNPKSDKFKVKRFHHIEFWCGDATNVARRFSWGLGMRFSAKSDLSTGNMVHASYLLTSGDLRFLFTAPYSPSLSAGEIKPTTTASIPSFDHGSCRSFYSSHGLGVRAVAIEVEDAESAFSISVANGAIPSSPPIVLNEAVTIAEVKLYGDVVLRYVSYKAEDTEKSEFLPGFERVEDASSFPLDYGIRRLDHAVGNVPELGPALTYVAGFTGFHQFAEFTADDVGTAESGLNSAVLASNDEMVLLPINEPVHGTKRKSQIQTYLEHNEGAGLQHLALMSEDIFRTLREMRKRSSIGGFDFMPSPPPTYYQNLKKRVGDVLSDDQIKECEELGILVDRDDQGTLLQIFTKPLGDRPTIFIEIIQRVGCMMKDEEGKAYQSGGCGGFGKGNFSELFKSIEEYEKTLEAKQLVG
46.7	–	AtHPPD-F419Y (protein, GST carrier omitted. Limits not printed: ARM region taken as everything after the U-box (240-314) to the C-terminus) MGHQNAAVSENQNHDDGAASSPGFKLVGFSKFVRKNPKSDKFKVKRFHHIEFWCGDATNVARRFSWGLGMRFSAKSDLSTGNMVHASYLLTSGDLRFLFTAPYSPSLSAGEIKPTTTASIPSFDHGSCRSFFSSHGLGVRAVAIEVEDAESAFSISVANGAIPSSPPIVLNEAVTIAEVKLYGDVVLRYVSYKAEDTEKSEFLPGFERVEDASSFPLDYGIRRLDHAVGNVPELGPALTYVAGFTGFHQFAEFTADDVGTAESGLNSAVLASNDEMVLLPINEPVHGTKRKSQIQTYLEHNEGAGLQHLALMSEDIFRTLREMRKRSSIGGFDFMPSPPPTYYQNLKKRVGDVLSDDQIKECEELGILVDRDDQGTLLQIFTKPLGDRPTIFIEIIQRVGCMMKDEEGKAYQSGGCGGYGKGNFSELFKSIEEYEKTLEAKQLVG
1.26	–	AtHPPD-F131Y (protein, GST carrier omitted. Limits not printed: ARM region taken as everything after the U-box (240-314) to the C-terminus) MGHQNAAVSENQNHDDGAASSPGFKLVGFSKFVRKNPKSDKFKVKRFHHIEFWCGDATNVARRFSWGLGMRFSAKSDLSTGNMVHASYLLTSGDLRFLFTAPYSPSLSAGEIKPTTTASIPSFDHGSCRSYFSSHGLGVRAVAIEVEDAESAFSISVANGAIPSSPPIVLNEAVTIAEVKLYGDVVLRYVSYKAEDTEKSEFLPGFERVEDASSFPLDYGIRRLDHAVGNVPELGPALTYVAGFTGFHQFAEFTADDVGTAESGLNSAVLASNDEMVLLPINEPVHGTKRKSQIQTYLEHNEGAGLQHLALMSEDIFRTLREMRKRSSIGGFDFMPSPPPTYYQNLKKRVGDVLSDDQIKECEELGILVDRDDQGTLLQIFTKPLGDRPTIFIEIIQRVGCMMKDEEGKAYQSGGCGGFGKGNFSELFKSIEEYEKTLEAKQLVG
1.59	–	AtHPPD-F215Y (protein, GST carrier omitted. Limits not printed: ARM region taken as everything after the U-box (240-314) to the C-terminus) MGHQNAAVSENQNHDDGAASSPGFKLVGFSKFVRKNPKSDKFKVKRFHHIEFWCGDATNVARRFSWGLGMRFSAKSDLSTGNMVHASYLLTSGDLRFLFTAPYSPSLSAGEIKPTTTASIPSFDHGSCRSFFSSHGLGVRAVAIEVEDAESAFSISVANGAIPSSPPIVLNEAVTIAEVKLYGDVVLRYVSYKAEDTEKSEFLPGFERVEDASSYPLDYGIRRLDHAVGNVPELGPALTYVAGFTGFHQFAEFTADDVGTAESGLNSAVLASNDEMVLLPINEPVHGTKRKSQIQTYLEHNEGAGLQHLALMSEDIFRTLREMRKRSSIGGFDFMPSPPPTYYQNLKKRVGDVLSDDQIKECEELGILVDRDDQGTLLQIFTKPLGDRPTIFIEIIQRVGCMMKDEEGKAYQSGGCGGFGKGNFSELFKSIEEYEKTLEAKQLVG
1.08	–	AtHPPD-F29Y (protein, GST carrier omitted. Limits not printed: ARM region taken as everything after the U-box (240-314) to the C-terminus) MGHQNAAVSENQNHDDGAASSPGFKLVGYSKFVRKNPKSDKFKVKRFHHIEFWCGDATNVARRFSWGLGMRFSAKSDLSTGNMVHASYLLTSGDLRFLFTAPYSPSLSAGEIKPTTTASIPSFDHGSCRSFFSSHGLGVRAVAIEVEDAESAFSISVANGAIPSSPPIVLNEAVTIAEVKLYGDVVLRYVSYKAEDTEKSEFLPGFERVEDASSFPLDYGIRRLDHAVGNVPELGPALTYVAGFTGFHQFAEFTADDVGTAESGLNSAVLASNDEMVLLPINEPVHGTKRKSQIQTYLEHNEGAGLQHLALMSEDIFRTLREMRKRSSIGGFDFMPSPPPTYYQNLKKRVGDVLSDDQIKECEELGILVDRDDQGTLLQIFTKPLGDRPTIFIEIIQRVGCMMKDEEGKAYQSGGCGGFGKGNFSELFKSIEEYEKTLEAKQLVG
1.65	–	AtHPPD-F202Y (protein, GST carrier omitted. Limits not printed: ARM region taken as everything after the U-box (240-314) to the C-terminus) MGHQNAAVSENQNHDDGAASSPGFKLVGFSKFVRKNPKSDKFKVKRFHHIEFWCGDATNVARRFSWGLGMRFSAKSDLSTGNMVHASYLLTSGDLRFLFTAPYSPSLSAGEIKPTTTASIPSFDHGSCRSFFSSHGLGVRAVAIEVEDAESAFSISVANGAIPSSPPIVLNEAVTIAEVKLYGDVVLRYVSYKAEDTEKSEYLPGFERVEDASSFPLDYGIRRLDHAVGNVPELGPALTYVAGFTGFHQFAEFTADDVGTAESGLNSAVLASNDEMVLLPINEPVHGTKRKSQIQTYLEHNEGAGLQHLALMSEDIFRTLREMRKRSSIGGFDFMPSPPPTYYQNLKKRVGDVLSDDQIKECEELGILVDRDDQGTLLQIFTKPLGDRPTIFIEIIQRVGCMMKDEEGKAYQSGGCGGFGKGNFSELFKSIEEYEKTLEAKQLVG
–	> 1000	His-AtHPPD (Arabidopsis thaliana 4-hydroxyphenylpyruvate dioxygenase) (enzyme) MGHQNAAVSENQNHDDGAASSPGFKLVGFSKFVRKNPKSDKFKVKRFHHIEFWCGDATNVARRFSWGLGMRFSAKSDLSTGNMVHASYLLTSGDLRFLFTAPYSPSLSAGEIKPTTTASIPSFDHGSCRSFFSSHGLGVRAVAIEVEDAESAFSISVANGAIPSSPPIVLNEAVTIAEVKLYGDVVLRYVSYKAEDTEKSEFLPGFERVEDASSFPLDYGIRRLDHAVGNVPELGPALTYVAGFTGFHQFAEFTADDVGTAESGLNSAVLASNDEMVLLPINEPVHGTKRKSQIQTYLEHNEGAGLQHLALMSEDIFRTLREMRKRSSIGGFDFMPSPPPTYYQNLKKRVGDVLSDDQIKECEELGILVDRDDQGTLLQIFTKPLGDRPTIFIEIIQRVGCMMKDEEGKAYQSGGCGGFGKGNFSELFKSIEEYEKTLEAKQLVG
